From patent US20040127407A1 (GREENVILLE HOSPITAL SYSTEM, published 2004)

Molecular target: T1, prolactin receptor (PRLR) on T-47D human breast cancer cells (human, UniProt P16471 25-622)
T1 construct: whole, on cells; Endogenous receptor on T-47D cells; also called hPRLR; PRL receptor
T1 sequence (looked up): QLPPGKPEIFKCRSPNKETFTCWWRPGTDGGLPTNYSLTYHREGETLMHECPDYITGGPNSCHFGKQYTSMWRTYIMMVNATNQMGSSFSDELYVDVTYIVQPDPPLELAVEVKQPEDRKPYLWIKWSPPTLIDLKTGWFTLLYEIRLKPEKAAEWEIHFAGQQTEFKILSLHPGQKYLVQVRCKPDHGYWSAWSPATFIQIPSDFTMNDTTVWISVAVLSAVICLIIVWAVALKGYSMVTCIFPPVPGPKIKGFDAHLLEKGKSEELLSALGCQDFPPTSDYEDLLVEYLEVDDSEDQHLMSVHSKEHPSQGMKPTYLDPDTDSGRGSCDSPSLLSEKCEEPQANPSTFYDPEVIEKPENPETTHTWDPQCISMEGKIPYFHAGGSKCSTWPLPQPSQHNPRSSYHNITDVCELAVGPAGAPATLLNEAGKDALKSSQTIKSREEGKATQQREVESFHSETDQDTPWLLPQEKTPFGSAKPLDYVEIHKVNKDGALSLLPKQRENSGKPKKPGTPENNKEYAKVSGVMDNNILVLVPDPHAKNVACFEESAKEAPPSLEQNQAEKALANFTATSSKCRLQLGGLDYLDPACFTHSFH
Assay: competitive radioreceptor binding assay on T-47D cells, 125I-hPRL tracer
Procedure: Radioreceptor binding assays were performed as previously described (Chen et al., 1991; Appendix B). Briefly, T-47D cells will be grown in six-well tissue culture plates until 90% confluent (˜10⁵ cells/well). Monolayers of cells were starved in serum-free RPMI-1640 medium for 2h. The cells were then incubated at room temperature for two hours in serum-free RPMI-1640 containing 8×10⁴ cpm ¹²⁵I hPRL (Specific Activity=30 μCi/μg; NEN Dupont, Boston, Mass.) with or without hPRL, hPRL-G129R, endostatin, or GEFP at various concentrations. Cells were then washed three times in serum-free RPMI-1640 and solubilized in 0.5 ml of 0.1N NaOH/1% SDS, and the bound radioactivity was determined by a Gamma counter (ICN Biomedical, model 4/600plus; Costa Mesa, Calif.).

B1: human prolactin (hPRL) (ligand, UniProt P01236 29-227, looked up)
chain: LPICPGGAARCQVTLRDLFDRAVVLSHYIHNLSSEMFSEFDKRYTHGRGFITKAINSCHTSSLATPEDKEQAQQMNQKDFLSLIVSILRSWNEPLYHLVTEVRGMQEAPEAILSKAVEIEEQTKRLLEGMELIVSQVHPETKENEIYPVWSGLPSLQMADEESRLSAYYNLLHCLRRDSHKIDNYLKLLKCRIIHNNNC
- binding result: binds

B2: hPRL-G129R (ligand)
chain: MLPICPGGAARCQVTLRDLFDRAVVLSHYIHNLSSEMFSEFDKRYTHGRGFITKAINSCHTSSLATPEDKEQAQQMNQKDFLSLIVSILRSWNEPLYHLVTEVRGMQEAPEAILSKAVEIEEQTKRLLERMELIVSQVHPETKENEIYPVWSGLPSLQMADEESRLSAYYNLLHCLRRDSHKIDNYLKLLKCRIIHNNNC
notes: also called hPRLA; prolactin antagonist
- binding result: binds

B3: G129R-endostatin fusion protein (GEFP) (other)
chain: MLPICPGGAARCQVTLRDLFDRAVVLSHYIHNLSSEMFSEFDKRYTHGRGFITKAINSCHTSSLATPEDKEQAQQMNQKDFLSLIVSILRSWNEPLYHLVTEVRGMQEAPEAILSKAVEIEEQTKRLLERMELIVSQVHPETKENEIYPVWSGLPSLQMADEESRLSAYYNLLHCLRRDSHKIDNYLKLLKCRIIHNNNCGSHSHRDFQPVLHLVALNSPLSGGMRGIRGADFQCFQQARAVGLAGTFRAFLSSRLQDLYSIVRRADRAAVPIVNLKDELLFPSWEALFSGSEGPLKPGARIFSFDGKDVLRHPTWPQKSVWHGSDPNGRRLTESYCETWRTEAPSATGQASSLLGGRLLGQSAASCHHAYIVLCIENSFMTASK
notes: The C-terminus of G129R is fused to the N-terminus of endostatin; E. coli product with an extra Met at the N-terminus; also called hPRL-G129R-Endo fusion protein
- binding result: binds
